Experimental data from paper PMC10397247.

Legend:
[1] = target: T1, 4H3162-bN; assay: two-hybrid library CCNG1;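 further: natural log of median RNA to DNA barcode read ratio; higher means stronger binding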
T1 chain: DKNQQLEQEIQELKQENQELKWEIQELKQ

[2] = target: T2, 4H2673-bN; assay: two-hybrid library CCNG1;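 further: natural log of median RNA to DNA barcode read ratio; higher means stronger binding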
T2 chain: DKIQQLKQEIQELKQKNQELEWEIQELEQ

[3] = target: T3, 4H1985-bN; assay: two-hybrid library CCNG1;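 further: natural log of median RNA to DNA barcode read ratio; higher means stronger binding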
T3 chain: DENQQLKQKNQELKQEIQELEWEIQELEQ

[4] = target: T4, 4H1899-bN; assay: two-hybrid library CCNG1;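 further: natural log of median RNA to DNA barcode read ratio; higher means stronger binding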
T4 chain: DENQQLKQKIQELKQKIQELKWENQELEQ

[5] = target: T5, 4H3175-bN; assay: two-hybrid library CCNG1
T5 chain: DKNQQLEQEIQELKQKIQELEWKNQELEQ

[6] = target: T6, 4H591-bN; assay: two-hybrid library CCNG1
T6 chain: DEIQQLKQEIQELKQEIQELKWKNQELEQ

[7] = target: T7, 4H780-bN; assay: two-hybrid library CCNG1
T7 chain: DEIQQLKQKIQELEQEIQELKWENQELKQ

[8] = target: T8, 4H3277-bN; assay: two-hybrid library CCNG1
T8 chain: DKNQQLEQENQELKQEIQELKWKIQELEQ

[9] = target: T9, 4H575-bN; assay: two-hybrid library CCNG1
T9 chain: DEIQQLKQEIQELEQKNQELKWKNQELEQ

[10] = target: T10, 4H3427-bN; assay: two-hybrid library CCNG1
T10 chain: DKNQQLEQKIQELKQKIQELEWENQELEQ

[11] = target: T11, 4H855-bN; assay: two-hybrid library CCNG1
T11 chain: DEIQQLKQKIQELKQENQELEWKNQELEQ

[12] = target: T12, 4H3628-bN; assay: two-hybrid library CCNG1
T12 chain: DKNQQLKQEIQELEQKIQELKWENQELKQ

[13] = target: T13, 4H457-bN; assay: two-hybrid library CCNG1
T13 chain: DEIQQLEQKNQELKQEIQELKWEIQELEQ

[14] = target: T14, 4H3364-bN; assay: two-hybrid library CCNG1
T14 chain: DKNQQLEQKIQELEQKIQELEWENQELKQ

[15] = target: T15, 4H346-bN; assay: two-hybrid library CCNG1
T15 chain: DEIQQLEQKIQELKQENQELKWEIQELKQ

[16] = target: T16, 4H1158-bN; assay: two-hybrid library CCNG1
T16 chain: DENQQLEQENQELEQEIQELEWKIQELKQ

[17] = target: T17, 4H918-bN; assay: two-hybrid library CCNG1
T17 chain: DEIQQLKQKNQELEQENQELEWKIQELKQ

[18] = target: T18, 4H3010-bN; assay: two-hybrid library CCNG1
T18 chain: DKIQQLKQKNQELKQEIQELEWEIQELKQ

[19] = target: T19, 4H3497-bN; assay: two-hybrid library CCNG1
T19 chain: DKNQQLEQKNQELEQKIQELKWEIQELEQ

[20] = target: T20, 4H953-bN; assay: two-hybrid library CCNG1
T20 chain: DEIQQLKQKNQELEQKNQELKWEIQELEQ

[21] = target: T21, 4H968-bN; assay: two-hybrid library CCNG1
T21 chain: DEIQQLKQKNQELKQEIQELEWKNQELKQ

[22] = target: T22, 4H3298-bN; assay: two-hybrid library CCNG1
T22 chain: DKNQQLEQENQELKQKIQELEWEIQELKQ

[23] = target: T23, 4H3462-bN; assay: two-hybrid library CCNG1
T23 chain: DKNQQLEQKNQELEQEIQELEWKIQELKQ

[24] = target: T24, 4H797-bN; assay: two-hybrid library CCNG1
T24 chain: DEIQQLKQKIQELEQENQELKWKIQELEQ

[25] = target: T25, 4H1831-bN; assay: two-hybrid library CCNG1
T25 chain: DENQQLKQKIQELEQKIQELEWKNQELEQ

[26] = target: T26, 4H3112-bN; assay: two-hybrid library CCNG1
T26 chain: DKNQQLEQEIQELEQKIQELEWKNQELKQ

[27] = target: T27, 4H1348-bN; assay: two-hybrid library CCNG1
T27 chain: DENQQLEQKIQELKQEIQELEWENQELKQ

[28] = target: T28, 4H683-bN; assay: two-hybrid library CCNG1
T28 chain: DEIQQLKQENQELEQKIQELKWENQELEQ

[29] = target: T29, 4H3613-bN; assay: two-hybrid library CCNG1
T29 chain: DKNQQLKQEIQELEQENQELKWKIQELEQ

[30] = target: T30, 4H1544-bN; assay: two-hybrid library CCNG1
T30 chain: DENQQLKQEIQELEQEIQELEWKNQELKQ

[31] = target: T31, 4H1710-bN; assay: two-hybrid library CCNG1
T31 chain: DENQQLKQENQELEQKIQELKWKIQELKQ

[32] = target: T32, 4H170-bN; assay: two-hybrid library CCNG1
T32 chain: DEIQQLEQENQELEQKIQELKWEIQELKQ

[33] = target: T33, 4H4073-bN; assay: two-hybrid library CCNG1
T33 chain: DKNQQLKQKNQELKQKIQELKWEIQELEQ

[34] = target: T34, 4H906-bN; assay: two-hybrid library CCNG1
T34 chain: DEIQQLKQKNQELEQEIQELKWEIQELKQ

[35] = target: T35, 4H2627-bN; assay: two-hybrid library CCNG1
T35 chain: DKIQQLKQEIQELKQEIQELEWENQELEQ

[36] = target: T36, 4H3926-bN; assay: two-hybrid library CCNG1; details: mean of both orientations
T36 chain: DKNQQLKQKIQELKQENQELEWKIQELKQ

[37] = target: T37, 4H754-bN; assay: two-hybrid library CCNG1
T37 chain: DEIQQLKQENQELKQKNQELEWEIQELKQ

[38] = target: T38, 4H1081-bN; assay: two-hybrid library CCNG1; details: mean of both orientations
T38 chain: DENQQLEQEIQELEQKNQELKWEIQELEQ

[39] = target: T39, 4H626-bN; assay: two-hybrid library CCNG1
T39 chain: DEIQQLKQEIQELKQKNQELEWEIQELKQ

[40] = target: T40, 4H2702-bN; assay: two-hybrid library CCNG1
T40 chain: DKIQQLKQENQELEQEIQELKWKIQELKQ

[41] = target: T41, 4H112-bN; assay: two-hybrid library CCNG1
T41 chain: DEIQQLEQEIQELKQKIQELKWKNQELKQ

[42] = target: T42, 4H118-bN; assay: two-hybrid library CCNG1
T42 chain: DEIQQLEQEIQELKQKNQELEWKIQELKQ

[43] = target: T43, 4H2586-bN; assay: two-hybrid library CCNG1
T43 chain: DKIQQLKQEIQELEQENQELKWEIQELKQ

[44] = target: T44, 4H1373-bN; assay: two-hybrid library CCNG1
T44 chain: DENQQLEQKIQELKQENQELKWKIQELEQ

[45] = target: T45, Core_NNNI-es_KKEE; assay: two-hybrid library CCmax; details: mean of both orientations
T45 chain: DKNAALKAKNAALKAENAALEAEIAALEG

[46] = target: T46, Core_NNIN-es_KEKE; assay: two-hybrid library CCmax; details: mean of both orientations
T46 chain: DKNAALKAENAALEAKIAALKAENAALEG

DENQQLEQEIQELEQKNQELKWEIQELEQ [4H1081-bN]
interaction score [1]: -1.74 | interaction score [2]: -0.316 | interaction score [3]: -1.65 | interaction score [4]: -0.693 | interaction score [5]: -0.589 | interaction score [6]: -1 | interaction score [7]: -1.12 | interaction score [8]: -2.73 | interaction score [9]: -1.36 | interaction score [10]: -0.819 | interaction score [11]: -1.78 | interaction score [12]: -0.745 | interaction score [13]: -0.831 | interaction score [14]: 0.163 | interaction score [15]: -0.916 | interaction score [16]: -1.04 | interaction score [17]: -1.87 | interaction score [18]: -0.379 | interaction score [19]: -0.836 | interaction score [20]: -0.906 | interaction score [21]: -1.97 | interaction score [22]: -1.1 | interaction score [23]: -0.385 | interaction score [24]: -0.855 | interaction score [25]: -0.661 | interaction score [26]: -0.643 | interaction score [27]: -1.49 | interaction score [28]: -0.818 | interaction score [29]: -1.17 | interaction score [30]: -1.22 | interaction score [31]: -2 | interaction score [32]: -1.72 | interaction score [33]: -0.961 | interaction score [34]: -1.43 | interaction score [35]: -0.602 | interaction score [36]: 1.86 | interaction score [37]: -0.498 | interaction score [38]: -0.711 | interaction score [39]: -1.12 | interaction score [40]: 0.0755 | interaction score [41]: -0.856 | interaction score [42]: -0.492 | interaction score [43]: -0.764 | interaction score [44]: -1.6

DENAALEAENAALEAKNAALKAKIAALKG [Core_NNNI-es_EEKK]
interaction score [45]: 2.38

DENAALEAKNAALKAEIAALEAKNAALKG [Core_NNIN-es_EKEK]
interaction score [46]: 1.67
